Measurements reported in the nanobody polyreactivity screen of Harvey et al. (2022).

Assay: yeast display, Sf9 membrane polyspecificity reagent, FACS + sequencing; frameworks hold sequencing errors
Summary of the method: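 A nanobody's polyreactivity label depends on the gate it was sorted from. Yeast display cells were stained with 10% biotinylated, detergent-solubilized Sf9 membrane reagent for 1 hour at 4 °C, enriched on streptavidin microbeads and sorted by FACS. The low and high (top ~1%) gates were set on anti-HA fluorescence for expression and streptavidin fluorescence for reagent binding.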

Sequence | polyreactivity (PSR sort gate)
QVQLVESGGGLVQAGGSLRLSCAASGFTFRYYAMGWYRQAPGKERELVAAISAGGGSTYYADSVKGRFTISRDNAKNTVYLQMNSLKPEDTAGYYCAAAGARPGYDYWGQGTQVTVSS | high polyreactivity
QVQLVESGGGLVQAGGRLRLSCAASGSTFLVYAMGWYRQAPGKERELVAVIRWRDGSTYYADSVKGRFTISRDNAKNTVYLQMNSLKPEDTAGYYCAAVYWGEEYEYWGQGTQVTVSS | low polyreactivity
QVQLVESGGGLVQAGGSLRLSCAASGFTFSYYAMGWYRQAPGKERELVAAISFGGSTYYADSVKGRFTISRDNAKNTVYLQMNSLKPEDTAVYYCAVYGDSYWGAYYYSDGYWGQGTQVTVSS | low polyreactivity
QVQLVESGGGLVQAGGSLRLSCAASGFIFYYNAMGWYRQAPGKERELVAGISRSAGSTYYADSVKGRFTISRDNAKNTVYLQMNSLKPEDTAVYYCAALYLSYITGTSYYWGQGTQVTVSS | low polyreactivity
QVQLVESGGCLDQAGGSLRLSCAASGFTLHSYAMGWYRQAPGKERELVAAITTGGSTYYADSVKGRLTISRDNAKNTVYLQMNSLKPEDTAVYYCAAEDPGPYGGYVYWGQGTQVTVSS | low polyreactivity
QVQLVESGGALLQAGGSLRLSCAASGSIFRFYAMGWYRQAPGKERELVARISGGGTTNYADSVKGRFTISRDNAKYTVYLQKNSQKPDDTAVYYCAAGCLYLPIWYPRWRYEYWGQGTQVTVSS | low polyreactivity
QVQLVESGGGLVQAGGSLRLSCAASGRTFSANTMGRYRQAPGKERELVAAITRGASTKYADSVKGRFTISRDNAKNTVYLPMNSLNPDDTAVYYCAAAVAYEYLQYAYTRYYYWGQGTQVTVSS | high polyreactivity
QVQLVESGGGLVQAGGSLRLSCAASGRIFVRNAMGWYRQAPGKERELVADITNGGSTNYADSVKGRFTITRDNAKNTVYLQMNSLKPEDTAVYYCAADTLGVYDGDYWGQVTQVTVSS | low polyreactivity
QVQLVESGGGLVQAGGSLRLSCAASGFIFWYYAMGWYRHAPGKERELVAVISSGSSTHYADSVKGRFTISRDNAKNTVYLQMNSLKPEDTAVDYCAARIRTRYFTGYYYWGQGTQVSVSS | high polyreactivity
QVQLVESGGGLVQAGGSLRLSCSASVRTFYRNSMGWYRQAPGKEREFVAVISVSGGSTYYADSVKGRFTISRDNAKNTVYLQMNSLKPEDTAVYYCAADEYYTFSSFELRRMDYWGQGTQVTVSS | low polyreactivity
QVQLVESGGGIVQAGGSLRLSCAASGRTFYRNAMGWYIHAPGKERELVAAITSGGSTYYADSVKGRFTISRDNAKNSGYLQMNCLKPEDTAVYYCAALRHALRYDYWGQGTQVTVSS | low polyreactivity
QVQLLESGGRLVQAGRSLRLSCAASGRTFGPYAMGWYRQAPGKEREFVAAISSRGGRTYYADSVKGRFTISRDNAKNTVYLQLNSLKPEDTAVYYCAAEYNYSNKYLYLFLQMDYWGQGSQVTVSS | low polyreactivity
QVQLVESGGGLVQAGGSLRLSCAASGYTFTINTMGWYRQAPGKERELVAAITWRGGSTYYADSVKGRFTISRDNANNTVYLQMNSLKPEDTAVYYCNKDYYITTTTFDYWGQGTQVTVSS | low polyreactivity
QVHLVESGGGLVQAGGSLRLSCAASGSIFYGNAMGWDRQATGKERELVAGISWYGGSTYYADSVKGRFTISRDNAKNTVYLQMNSLKPEDTAVYYCATVADEPRSYSGYEEYDYWGQGTQVTVSS | low polyreactivity
QYQLVESGGGLVHEGGSLSLRCAASGSNLYYYAMGWYRKAPGKERDLDAAITYSGGNTYYADSVKGRFTISRDNAKNNVYLQMNSLKPEDTAVYYCAADDWSSDYIRYEYWGQGTQVTVSS | low polyreactivity
QVQLVESGGGLVQAGGSLRLSCAASGSISKGYAMGWYRQAPGKERELVARISGDGGSTYYADSVKGRFTISRDNAKNTVYLQMNSLKPEDTAVYYCNTRQQFTLTRGVFLHNYWGQGTQVTVSS | high polyreactivity
QVQLVESGGGLVQAGGSLRLSCAASGRIFGVYAMGWYRQAPGKEREFVASITRGGGRTYYADSVKGRFTISRDNAKNTVYLQMNSLKPEDTAVYYCNAVVNSYPYYYWGQGTQVTVSS | high polyreactivity
